Laboratory results from US20230049152A1 (Genentech, published 2023).

T1: human ACKR2 (human, UniProt O00590 1-384)
T1 construct: whole, on cells; transiently expressed on HEK293 cells
T1 sequence (looked up): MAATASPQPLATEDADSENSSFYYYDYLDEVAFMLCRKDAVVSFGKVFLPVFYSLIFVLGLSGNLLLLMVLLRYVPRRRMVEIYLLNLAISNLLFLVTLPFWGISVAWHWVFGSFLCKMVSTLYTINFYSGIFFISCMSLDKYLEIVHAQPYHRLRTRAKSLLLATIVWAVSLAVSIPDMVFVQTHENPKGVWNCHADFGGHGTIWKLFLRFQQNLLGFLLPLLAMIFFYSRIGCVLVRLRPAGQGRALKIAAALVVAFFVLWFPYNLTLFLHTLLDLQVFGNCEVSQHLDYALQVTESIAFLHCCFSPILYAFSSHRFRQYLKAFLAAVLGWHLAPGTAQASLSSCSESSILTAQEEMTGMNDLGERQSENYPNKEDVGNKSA

T2: human CCR3 (human, UniProt P51677 1-355)
T2 construct: whole, on cells; transiently expressed on HEK293 cells
T2 sequence (looked up): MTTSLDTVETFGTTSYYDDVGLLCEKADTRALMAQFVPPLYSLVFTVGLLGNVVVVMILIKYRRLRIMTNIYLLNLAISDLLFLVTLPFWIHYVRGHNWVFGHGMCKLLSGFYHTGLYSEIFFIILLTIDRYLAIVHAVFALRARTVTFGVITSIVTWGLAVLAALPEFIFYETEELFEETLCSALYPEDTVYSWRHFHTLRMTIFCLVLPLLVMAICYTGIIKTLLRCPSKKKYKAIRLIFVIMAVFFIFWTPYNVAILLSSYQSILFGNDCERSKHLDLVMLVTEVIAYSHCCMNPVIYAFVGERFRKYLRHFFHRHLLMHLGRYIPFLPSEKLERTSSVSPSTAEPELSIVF


Legend:
human CCR8 [1] = biological target: T3, human CCR8 (human, UniProt P51685 1-355); test: cell-based or functional assay
human CCR2 [2] = biological target: T4, human CCR2 (human, UniProt P41597 1-374); test: flow cytometry, HEK293 with N-term FLAG-tagged human CCR2
T4 construct: whole, on cells; transiently expressed on HEK293 cells
T4 sequence (P41597 whole entry): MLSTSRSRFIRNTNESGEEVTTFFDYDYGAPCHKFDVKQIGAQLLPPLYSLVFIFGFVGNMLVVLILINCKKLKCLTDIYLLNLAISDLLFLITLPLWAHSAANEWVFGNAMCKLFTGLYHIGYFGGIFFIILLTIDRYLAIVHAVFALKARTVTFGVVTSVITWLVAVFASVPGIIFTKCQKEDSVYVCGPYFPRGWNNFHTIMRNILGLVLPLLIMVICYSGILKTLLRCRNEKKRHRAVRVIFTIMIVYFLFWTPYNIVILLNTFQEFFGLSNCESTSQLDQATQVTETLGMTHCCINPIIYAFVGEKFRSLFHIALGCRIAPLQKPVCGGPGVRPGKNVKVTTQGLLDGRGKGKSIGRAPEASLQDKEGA
Source text: (§1) FIGS. 4A-4F depicts the binding data of hu.Ab3.H1L1 (FIG. 4A), hu.Ab4.H1L1 (FIG. 4B), and hu.Ab5.H1L1 (FIG. 4C), as well as the commercial anti-CCR8 mAbs murine anti-human CCR8 mAb 433H (BD Biosciences) (FIG. 4D), and murine anti-human CCR8 mAb L263G8 (Biolegend) (FIG. 4E), and the humanized anti-human Yoshida anti-CCR8 mAb (FIG. 4F), to HEK293 cells that were transiently transfected with N-term FLAG-tagged plasmids encoding for human GPCRs (CCR2, CCR3, CCR4, CCR5, CCR8, CXCR4, ACKR2, and ACKR4), hCCR8 constructs, or with a mock construct using transIT X2 (reagent:DNA=3:1).
(§2) To confirm the selectivity to CCR8, the binding of hu.Ab3.H1L1, hu.Ab4.H1L1, and hu.Ab5.H1L1, as well as the Yoshida humanized anti-human CCR8, murine anti-human CCR8 mAb L263G8 (Biolegend, Commercial Ab) and murine anti-human CCR8 mAb 433H (BD Biosciences, Commercial Ab), were characterized by flow cytometry on HEK293 cells that were transiently transfected with plasmids encoding for FLAG-tagged other related human GPCRs (CCR2-5, CXCR4, ACKR2, and ACKR4). Cell surface expression of each GPCR was confirmed by staining with an anti-FLAG antibody control. In particular, HEK293 cells were transfected with N-term FLAG-tagged human CCR2, CCR3, CCR4, CCR5, CXCR4, ACKR2, ACKR4, hCCR8 constructs, or with a Mock construct using transIT X2 (reagent:DNA=3:1) for 24 hours, and surface stained with various anti-hCCR8 monoclonal antibodies at 5 ug/ml, or rabbit anti-Flag pAb (Sigma) followed by AF647-anti-hIgG or AF647-anti-RbIgG respectively. Antibodies hu.Ab4.H1L1, and hu.Ab5.H1L1, only stained the hCCR8-containing cells, confirming their specificity to hCCR8. […] Thus, the CCR8 selective hu.Ab4.H1L1 and hu.Ab5.H1L1 antibodies with the best ADCC activities were carried forward.

human ACKR2 = biological target: T1, human ACKR2; test: flow cytometry, HEK293 with N-term FLAG-tagged human ACKR2
Source text: as §1
(§3) To confirm the selectivity to CCR8, the binding of hu.Ab3.H1L1, hu.Ab4.H1L1, and hu.Ab5.H1L1, as well as the Yoshida humanized anti-human CCR8, murine anti-human CCR8 mAb L263G8 (Biolegend, Commercial Ab) and murine anti-human CCR8 mAb 433H (BD Biosciences, Commercial Ab), were characterized by flow cytometry on HEK293 cells that were transiently transfected with plasmids encoding for FLAG-tagged other related human GPCRs (CCR2-5, CXCR4, ACKR2, and ACKR4). Cell surface expression of each GPCR was confirmed by staining with an anti-FLAG antibody control. […]

human CXCR4 = biological target: T5, human CXCR4 (human, UniProt P61073 1-352); test: flow cytometry, HEK293 with N-term FLAG-tagged human CXCR4
T5 construct: whole, on cells; transiently expressed on HEK293 cells
T5 sequence (P61073 whole entry): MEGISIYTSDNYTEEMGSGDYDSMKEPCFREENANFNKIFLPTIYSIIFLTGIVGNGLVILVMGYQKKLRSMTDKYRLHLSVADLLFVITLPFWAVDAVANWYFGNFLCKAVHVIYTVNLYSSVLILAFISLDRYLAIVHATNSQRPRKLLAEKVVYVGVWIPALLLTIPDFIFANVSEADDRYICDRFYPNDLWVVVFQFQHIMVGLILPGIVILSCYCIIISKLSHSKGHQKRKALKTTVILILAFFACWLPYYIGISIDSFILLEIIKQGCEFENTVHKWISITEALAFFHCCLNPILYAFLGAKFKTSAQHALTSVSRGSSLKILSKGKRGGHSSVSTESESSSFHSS
Source text: as §1, §3

human CCR8 [3] = biological target: T3, human CCR8; test: cell-based or functional assay; remark: listed apart in the source
GST-FcgR3a.V158 = biological target: T6, GST-FcgR3a.V158 (UniProt P08637 17-208, limits assumed); test: ELISA, GST-FcgR3a.V158 captured by anti-GST antibody
T6 construct: Captured by anti-GST antibody on ELISA plate; also called FcgR3a.V158 protein; Fcgamma RIIIa V158; not shown: GST tag
T6 sequence (P08637 17-208 F176V limits assumed): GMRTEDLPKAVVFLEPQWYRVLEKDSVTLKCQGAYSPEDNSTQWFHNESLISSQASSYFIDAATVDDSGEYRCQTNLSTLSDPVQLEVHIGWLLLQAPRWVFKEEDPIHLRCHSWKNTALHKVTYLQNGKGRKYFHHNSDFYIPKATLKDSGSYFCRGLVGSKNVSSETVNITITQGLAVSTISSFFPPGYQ
Description: The binding of fucosylated and afucosylated variants of hu.Ab5.H13L1 and hu.Ab4.H12L3 to both FcgR3a proteins by ELISA was studied. Briefly, an anti-GST antibody was coated on Nunc Maxisorp plates. GST-FcgR3a.V158 and GST-FcgR3a.F158 were captured at 500 ng/mL. Plates were then washed and then serially diluted anti-CCR8 antibodies starting at 100 ug/mL were incubated on the plate for 1 hour at room temperature. Plates were washed and bound antibody was detected by a HRP-conjugated anti-human IgG secondary antibody. Absorbance at 450 nm was measured by a plate reader. The data were fitted using a 4-parameter logistic curve in Softmax Pro.

human CCR2 [4] = biological target: T4, human CCR2; test: flow cytometry, HEK293 with N-term FLAG-tagged human CCR2, procedure of FIG. 4
Source text: as §2
(§4) To reconfirm that the Ab4 and Ab5 variants remained selective to CCR8 compared to the corresponding HIL1 variants, binding was analyzed by flow cytometry following the procedure as described for FIG. 4A and FIG. 4B. […]

human CCR3 = biological target: T2, human CCR3; test: flow cytometry, HEK293 with N-term FLAG-tagged human CCR3, procedure of FIG. 4
Source text: as §2, §4

Row | Binder | ADCC EC50, NK-92_F158 effector cells, calcein release (human CCR8 [1]) [pM] | binding result (human CCR2 [2]) | binding result (human ACKR2) | binding result (human CXCR4) | ADCC EC50, NK-92 F158 cells (FIG. 11A) (human CCR8 [3]) [pM] | ADCC EC50, NK-92 V158 cells (FIG. 11B) (human CCR8 [3]) [pM] | EC50 (GST-FcgR3a.V158) [µg/mL] | binding result (human CCR2 [4]) | binding result (human CCR3)
1 | hu.Ab5.H1L1 (antibody, human IgG1, kappa) heavy: not shown light: DIQVTQSPSSLSASVGDRVTITCQASENIANALAWYQQKPGKPPKFLIYGASNLASGVPSRFSGSGSGTDFTFTISSLQPEDIATYYCQQAYYGNSFVEGTFGGGTKVEIKRTVAAPSVFIFPPSDEQLKSGTASVVCLLNNFYPREAKVQWKVDNALQSGNSQESVTEQDSKDSTYSLSSTLTLSKADYEKHKVYACEVTHQGLSSPVTKSFNRGEC | 20 | no binding (tested: 5 ug/ml) | no binding (tested: 5 ug/ml) | no binding (tested: 5 ug/ml) | – | – | – | – | –
2 | hu.Ab4.H1L1 (antibody, human IgG1, kappa, also called hu.Ab4.H1Ll) heavy: not shown light: DYQMTQSPSSLSASVGDRVTITCQASQSISSYLSWYQQKPGKRPKLLIYKASTLASGVPSRFSGSGSGTDFTLTISSLQPEDFATYYCQQGYTSSNIDNIFGGGTKVEIKRTVAAPSVFIFPPSDEQLKSGTASVVCLLNNFYPREAKVQWKVDNALQSGNSQESVTEQDSKDSTYSLSSTLTLSKADYEKHKVYACEVTHQGLSSPVTKSFNRGEC | 80 | no binding (tested: 5 ug/ml) | no binding (tested: 5 ug/ml) | no binding (tested: 5 ug/ml) | – | – | – | – | –

The remaining lines, values ahead:

Row | ADCC EC50, NK-92_F158 effector cells, calcein release (human CCR8 [1]) [pM] | binding result (human CCR2 [2]) | binding result (human ACKR2) | binding result (human CXCR4) | ADCC EC50, NK-92 F158 cells (FIG. 11A) (human CCR8 [3]) [pM] | ADCC EC50, NK-92 V158 cells (FIG. 11B) (human CCR8 [3]) [pM] | EC50 (GST-FcgR3a.V158) [µg/mL] | binding result (human CCR2 [4]) | binding result (human CCR3) | Binder
3 | – | – | – | – | 140 | 94 | 0.39 | no binding (tested: 5 ug/ml) | no binding (tested: 5 ug/ml) | hu.Ab5.H13L1 (antibody, human IgG1, kappa, fucosylated human IgG1; also called Ab5 variant) heavy: not shown light: DIQVTQSPSSLSASVGDRVTITCQASENIANALAWYQQKPGKPPKFLIYGASNLASGVPSRFSGSGSGTDFTFTISSLQPEDIATYYCQQAYYGNSFVEGTFGGGTKVEIKRTVAAPSVFIFPPSDEQLKSGTASVVCLLNNFYPREAKVQWKVDNALQSGNSQESVTEQDSKDSTYSLSSTLTLSKADYEKHKVYACEVTHQGLSSPVTKSFNRGEC
4 | – | – | – | – | 270 | 210 | 0.388 | no binding (tested: 5 ug/ml) | no binding (tested: 5 ug/ml) | hu.Ab4.H12L3 (antibody, human IgG1, kappa, fucosylated human IgG1; also called huCCR8-Ab4.H12L3.hIgG1; Ab4 variant) heavy: not shown light: DYQMTQSPSSLSASVGDRVTITCQASQSISSYLSWYQQKPGKAPKLLIYKASTLASGVPSRFSGSGSGTDFTLTISSLQPEDFATYYCQQGYTSSNIDNIFGGGTKVEIKRTVAAPSVFIFPPSDEQLKSGTASVVCLLNNFYPREAKVQWKVDNALQSGNSQESVTEQDSKDSTYSLSSTLTLSKADYEKHKVYACEVTHQGLSSPVTKSFNRGEC
